According to article PMC2706296 (Nature structural & molecular biology, 2009):

Legend:
[1] = biological target: T1, Nup85 C-terminally tagged with a tandem affinity purification (TAP) tag (budding yeast (endogenous), UniProt P46673 1-744); test: affinity purification with mass spectrometry
T1 sequence (looked up): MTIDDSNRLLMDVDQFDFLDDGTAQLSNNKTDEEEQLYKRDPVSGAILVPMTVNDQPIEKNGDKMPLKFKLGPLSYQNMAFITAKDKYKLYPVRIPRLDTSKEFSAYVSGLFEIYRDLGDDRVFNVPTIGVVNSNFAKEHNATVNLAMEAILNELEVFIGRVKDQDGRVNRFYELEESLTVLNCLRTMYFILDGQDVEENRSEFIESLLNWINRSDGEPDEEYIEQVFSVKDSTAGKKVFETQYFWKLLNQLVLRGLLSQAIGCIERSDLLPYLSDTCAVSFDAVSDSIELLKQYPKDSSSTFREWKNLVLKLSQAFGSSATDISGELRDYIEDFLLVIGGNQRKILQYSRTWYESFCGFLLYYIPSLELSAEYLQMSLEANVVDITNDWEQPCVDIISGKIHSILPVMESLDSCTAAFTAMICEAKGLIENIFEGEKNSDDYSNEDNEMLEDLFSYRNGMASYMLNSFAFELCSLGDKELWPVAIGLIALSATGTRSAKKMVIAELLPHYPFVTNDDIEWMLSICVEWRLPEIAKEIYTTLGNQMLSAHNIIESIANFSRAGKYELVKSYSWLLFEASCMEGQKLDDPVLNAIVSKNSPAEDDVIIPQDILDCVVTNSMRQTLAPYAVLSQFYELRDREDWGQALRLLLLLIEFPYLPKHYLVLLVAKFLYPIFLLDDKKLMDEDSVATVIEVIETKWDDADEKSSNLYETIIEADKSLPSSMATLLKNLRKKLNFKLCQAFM

Nup84 = Nup84 (budding yeast (endogenous), UniProt P52891 1-726); test: negative-stain EM, random conical tilt 3D reconstruction
Nup84, sequence (P52891 whole entry): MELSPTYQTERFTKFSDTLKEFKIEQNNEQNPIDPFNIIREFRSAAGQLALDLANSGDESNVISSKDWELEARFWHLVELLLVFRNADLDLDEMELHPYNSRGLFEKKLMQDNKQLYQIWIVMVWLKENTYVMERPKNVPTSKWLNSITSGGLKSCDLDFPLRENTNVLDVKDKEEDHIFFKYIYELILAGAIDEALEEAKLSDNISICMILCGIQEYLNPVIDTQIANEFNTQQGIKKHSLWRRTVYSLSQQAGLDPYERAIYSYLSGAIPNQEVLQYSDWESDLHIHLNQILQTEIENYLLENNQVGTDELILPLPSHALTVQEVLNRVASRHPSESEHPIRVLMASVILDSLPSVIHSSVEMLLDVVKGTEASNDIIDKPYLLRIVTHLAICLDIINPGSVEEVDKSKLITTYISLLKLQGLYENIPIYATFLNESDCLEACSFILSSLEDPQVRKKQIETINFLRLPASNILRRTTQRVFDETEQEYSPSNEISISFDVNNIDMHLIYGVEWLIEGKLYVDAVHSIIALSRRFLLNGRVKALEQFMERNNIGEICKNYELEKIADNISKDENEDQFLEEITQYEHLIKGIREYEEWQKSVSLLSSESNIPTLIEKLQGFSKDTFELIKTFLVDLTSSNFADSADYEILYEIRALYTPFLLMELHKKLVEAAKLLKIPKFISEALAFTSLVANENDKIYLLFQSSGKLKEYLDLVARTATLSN

B1: Seh1 (natural protein, budding yeast (endogenous), UniProt P53011 1-349, looked up)
chain: MQPFDSGHDDLVHDVVYDFYGRHVATCSSDQHIKVFKLDKDTSNWELSDSWRAHDSSIVAIDWASPEYGRIIASASYDKTVKLWEEDPDQEECSGRRWNKLCTLNDSKGSLYSVKFAPAHLGLKLACLGNDGILRLYDALEPSDLRSWTLTSEMKVLSIPPANHLQSDFCLSWCPSRFSPEKLAVSALEQAIIYQRGKDGKLHVAAKLPGHKSLIRSISWAPSIGRWYQLIATGCKDGRIRIFKITEKLSPLASEESLTNSNMFDNSADVDMDAQGRSDSNTEEKAELQSNLQVELLSEHDDHNGEVWSVSWNLTGTILSSAGDDGKVRLWKATYSNEFKCMSVITAQQ
binding result [1]: binds

B2: Nup145C (natural protein, budding yeast (endogenous), UniProt P49687 606-1317, looked up)
chain: SIWGLVNEEDAEIDEDDLSKQEDGGEQPLRKVRTLAQSKPSDKEVILKTDGTFGTLSGKDDSIVEEKAYEPDLSDADFEGIEASPKLDVSKDWVEQLILAGSSLRSVFATSKEFDGPCQNEIDLLFSECNDEIDNAKLIMKERRFTASYTFAKFSTGSMLLTKDIVGKSGVSIKRLPTELQRKFLFDDVYLDKEIEKVTIEARKSNPYPQISESSLLFKDALDYMEKTSSDYNLWKLSSILFDPVSYPYKTDNDQVKMALLKKERHCRLTSWIVSQIGPEIEEKIRNSSNEIEQIFLYLLLNDVVRASKLAIESKNGHLSVLISYLGSNDPRIRDLAELQLQKWSTGGCSIDKNISKIYKLLSGSPFEGLFSLKELESEFSWLCLLNLTLCYGQIDEYSLESLVQSHLDKFSLPYDDPIGVIFQLYAANENTEKLYKEVRQRTNALDVQFCWYLIQTLRFNGTRVFSKETSDEATFAFAAQLEFAQLHGHSLFVSCFLNDDKAAEDTIKRLVMREITLLRASTNDHILNRLKIPSQLIFNAQALKDRYEGNYLSEVQNLLLGSSYDLAEMAIVTSLGPRLLLSNNPVQNNELKTLREILNEFPDSERDKWSVSINVFEVYLKLVLDNVETQETIDSLISGMKIFYDQYKHCREVAACCNVMSQEIVSKILEKNNPSIGDSKAKLLELPLGQPEKAYLRGEFAQDLMKCTYKI
binding result (Nup84): binds
